For one molecule, Kd results are on record in patent US20200231652A1 (NATIONAL RESEARCH COUNCIL OF CANADA, published 2020).

The target of the assay is RSV-F (UniProt P03420 26-529). Description: SPR, similar method as for Cetuximab.
Chain of RSV-F (P03420 26-529): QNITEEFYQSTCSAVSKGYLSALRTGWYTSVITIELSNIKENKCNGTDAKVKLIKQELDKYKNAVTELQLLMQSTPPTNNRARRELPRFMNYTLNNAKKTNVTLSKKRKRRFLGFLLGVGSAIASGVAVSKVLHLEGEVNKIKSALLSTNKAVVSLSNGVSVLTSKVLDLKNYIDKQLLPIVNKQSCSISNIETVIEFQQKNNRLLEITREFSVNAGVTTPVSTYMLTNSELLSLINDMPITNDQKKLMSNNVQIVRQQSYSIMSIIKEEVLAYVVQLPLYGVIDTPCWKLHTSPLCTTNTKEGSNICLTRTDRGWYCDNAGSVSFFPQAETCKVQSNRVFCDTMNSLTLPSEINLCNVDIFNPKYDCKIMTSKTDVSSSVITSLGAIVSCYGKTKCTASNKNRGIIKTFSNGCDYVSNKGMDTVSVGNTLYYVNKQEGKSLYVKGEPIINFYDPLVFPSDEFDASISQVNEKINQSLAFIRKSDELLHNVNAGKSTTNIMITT

B1: Synagis (antibody, human IgG1, kappa, V domains shown)
VH: QVTLRESGPALVKPTQTLTLTCTFSGFSLSTSGMSVGWIRQPPGKALEWLADIWWDDKKDYNPSLKSRLTISKDTSKNQVVLKVTNMDPADTATYYCARSMITNWYFDVWGAGTTVTVSS
VL: DIQMTQSPSTLSASVGDRVTITCKCQLSVGYMHWYQQKPGKAPKLLIYDTSKLASGVPSRFSGSGSGTEFTLTISSLQPDDFATYYCFQGSGYPFTFGGGTKLEIKR
Take B1: binding was characterised by a dissociation constant (Kd) of 6.6 nM.

Usually Kd stands for the free concentration of one partner at which half of the binding sites on the other are occupied at equilibrium, for simple one-to-one binding. A higher Kd goes with lower affinity.
